The target of the assay is MCT2 tagged at its N-terminus with CFP (rat) (UniProt Q63344). Put plainly: FRET or BRET; live COS-7 cells co-transfected with MCT2-ECFP (N-terminal) and np55- or np65-EYFP (C-terminal), 48 h after transfection; 37°C, imaging buffer pH 7.4; ratio of emission at 480 nm to 530 nm on excitation at 430 nm (MCT2-CFP alone 1.33±0.016). A general note: BRET reads energy transfer from a luciferase to a nearby fluorophore.
MCT2 tagged at its N-terminus with CFP (rat), sequence (Q63344 whole entry): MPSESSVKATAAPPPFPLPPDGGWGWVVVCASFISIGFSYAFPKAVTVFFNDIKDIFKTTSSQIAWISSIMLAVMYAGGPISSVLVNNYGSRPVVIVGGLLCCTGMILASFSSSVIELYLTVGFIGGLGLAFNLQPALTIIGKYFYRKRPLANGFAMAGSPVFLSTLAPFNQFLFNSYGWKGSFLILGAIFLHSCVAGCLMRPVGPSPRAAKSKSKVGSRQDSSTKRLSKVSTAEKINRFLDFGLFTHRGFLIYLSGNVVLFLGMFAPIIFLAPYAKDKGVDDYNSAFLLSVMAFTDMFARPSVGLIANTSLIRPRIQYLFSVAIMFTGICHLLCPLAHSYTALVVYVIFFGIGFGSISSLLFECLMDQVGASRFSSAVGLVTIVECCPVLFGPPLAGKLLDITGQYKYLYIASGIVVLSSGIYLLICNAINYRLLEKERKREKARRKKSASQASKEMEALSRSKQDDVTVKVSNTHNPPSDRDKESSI

np55 C-terminally labelled with YFP (natural protein), sequence (P97546 29-393): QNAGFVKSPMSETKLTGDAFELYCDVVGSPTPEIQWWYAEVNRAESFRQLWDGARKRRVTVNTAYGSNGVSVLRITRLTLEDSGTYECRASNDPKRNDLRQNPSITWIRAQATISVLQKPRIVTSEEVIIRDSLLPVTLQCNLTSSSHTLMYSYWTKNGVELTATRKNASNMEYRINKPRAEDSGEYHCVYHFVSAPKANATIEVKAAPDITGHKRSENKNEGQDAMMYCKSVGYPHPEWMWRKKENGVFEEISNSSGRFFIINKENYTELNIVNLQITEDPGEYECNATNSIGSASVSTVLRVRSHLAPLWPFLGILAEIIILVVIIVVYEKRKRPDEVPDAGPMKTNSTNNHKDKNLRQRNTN

Consider “np55 C-terminally labelled with YFP (natural protein)”, for which the 480:530 nm fluorescence emission ratio (FRET) is 0.797.

These data come from publication PMC3832594.
